Test results: CN113912720A (BLOOD DISEASES HOSPITAL CHINESE ACADEMY OF MEDICAL SCIENCES …, dated 2022)

Biological target: T1, 人BCMA蛋白 (on 3T3-BCMA cells) (human, UniProt Q02223 1-54)
T1 construct: extracellular domain; also called 3T3-BCMA细胞表面BCMA蛋白; CD269
T1 sequence (looked up): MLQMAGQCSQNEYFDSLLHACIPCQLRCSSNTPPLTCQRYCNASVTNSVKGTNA
Experiment: Flow cytometry: PE-labelled 69G8 titrated from 400 nM to 0.025 nM on 3T3-BCMA cells; mean fluorescence fitted with GraphPad Prism 7

Kd: 13.8 nM
B1: 抗人BCMA单克隆抗体69G8 (antibody, V domains shown)
VH: QVQLQQSGAEVVRPGTSVKVSCKASGYAFTNYLIEWVKQRPGQGPEWIGVITPGRGDTKYNAKFAGKATLTADKSSSTAYMQLSSLTFDDSAVYFCARGTTAWFPYWGQGTLVTVSA
VL: DIVLTQSPASLTVSLGQRATISCRASKSVSTSGYSYMHWYQQKPRQPPKLLIYLASNLESGVPARFSGSGSGTDFTLNIHPVEEEDAATYYCQHSRDLPYTFGGGTKLEIKR
notes: also called 69G8抗体; PE标记抗体69G8
